The values below come from patent publication US12723279B2, “Long stokes shift chromenoquinoline dyes and uses in sequencing applications” (priority 2020, dated 2026).

What all share (format): physicochemical
Data set [1] can be described thus: UV-Vis absorption of chromenoquinoline dye labeled ffA nucleotides. How it is done:
(§1) The chromenoquinoline dye of Formula (I) (0.020 mmol) was coevaporated with 2×2 mL of anhydrous N,N′-dimethylformamide (DMF), then dissolved in 2 mL of anhydrous N,N′-dimethylacetamide (DMA). N,N-diisopropylethylamine (28.4 μL, 0.163 mmol) was added, followed by N,N,N′,N′-tetramethyl-O—(N-succinimidyl)uronium tetrafluoroborate as 0.1 M solution in anhydrous DMA (TSTU, 232 μL, 0.023 mmol). The reaction was stirred under nitrogen at RT for 30 minutes. In the meantime, an aqueous solution of the 2′-deoxyadenosine triphosphates-linker (0.01 mmol) was evaporated to dryness under reduced pressure and resuspended in 200 μL, of 0.1 M triethylammonium bicarbonate (TEAB) solution in water. The activated chromenoquinoline dye solution was added to the triphosphate and the reaction was stirred at RT for 18 hours. The crude product was purified firstly by ion-exchange chromatography on DEAE-Sephadex A25 (25 g). The fractions containing the triphosphate were pooled and the solvent was evaporated to dryness under reduced pressure. The crude material was further purified by preparative scale RP-HPLC using a YMC-Pack-Pro C18 column. The final compound was characterized by LC-MS, analytical RP-HPLC and UV-Vis spectroscopy.
(§2) In this example, the spectral properties of several fully functionalized A nucleotides (ffAs) conjugated with the chromenoquinoline dyes described herein were characterized. FIG. 1 illustrates the […] of ffA nucleotides conjugated with chromenoquinoline dyes I-1 through I-6 and I-8 as a 2 μM solution in Universal Scan Mix (USM, 1 M Tris pH 7.5, 0.05% TWEEN, 20 mM sodium ascorbate, 10 mM ethyl gallate). FIGS. 2A-2D show the fluorescence emission spectra of ffA nucleotide conjugated with chromenoquinoline dyes I-1 through I-6 and I-8 acquired using either 450 nm or 520 nm as excitation wavelengths in USM. The spectra were acquired on an Agilent Cary 100 UV-Vis Spectrophotometer and on a Cary Eclipse Fluorescence Spectrophotometer, using quartz or plastic cuvettes. It was observed that the chromenoquinoline dyes described herein can be excited under both blue and green light sources and also have strong fluorescent emission.

Data set [2] is described as follows: Fluorescence emission of chromenoquinoline dye labeled ffA nucleotides. Here is the method:
as §1, §2

Data set [3] is described as follows: Stability of dye labeled ffAs in aqueous solution at high pH (ethanolamine and glycine buffers, 45° C.). To be noted: 10 μM, dark, vs ffC labeled with coumarin reference dye A. How it is done: The stability of the compounds ffA-sPA-I-3 and ffA-sPA-I-4 in an aqueous solution at high pH was assessed by incubating a 10 μM solution of the given compound in two buffers: 1) 50 mM ethanolamine buffer, pH 9.6, 50 mM NaCl, 1 mM EDTA, 0.02% CHAPS, 4 mM MgSO4; 2) 50 mM glycine buffer, pH 9.8, 50 mM NaCl, 1 mM EDTA, 0.2% CHAPS, 4 mM MgSO4 at 45° C. in the dark for 6 days. At set time points, the UV-VIS absorption and fluorescence emission of the solutions were measured on an Agilent Cary 100 UV-Vis Spectrophotometer and on a Cary Eclipse Fluorescence Spectrophotometer, using quartz cuvettes. In addition, aliquots of the solutions were taken and analyzed by analytical HPLC. […] The coumarin reference dye A is disclosed in U.S. Publication No. 2018/0094140, having the structure moiety

Setting [4] is: 50 mM ethanolamine buffer pH 9.6, 45° C., 6 days (FIG. 3A).
The mark [5] stands for this setting: 50 mM glycine buffer pH 9.8, 45° C., 6 days (FIG. 3B).

As to `COc1ccc2c(c1)cc1c([n+]2C)-c2cc3c(cc2OC1)N(CCCC(=O)NCCNC(=O)c1cccc(OCC(N=[N+]=[N-])OCCOCC(=O)NCC#Cc2cn([C@H]4CC(OCN=[N+]=[N-])[C@@H](COP(=O)(O)OP(=O)(O)OP(=O)(O)O)O4)c4ncnc(N)c24)c1)CCC3` (stereo partly shown) [ffA-LN3-I-1], the “UV-VIS λmax” value in data set [1] turned out to be 503 nm. In addition, in data set [2], the “Fluorescence em. λmax” value is recorded as 590 nm.

Turning to `Cc1cc2cc3c([n+](C)c2cc1C)-c1cc2c(cc1OC3)N(CCCC(=O)NCCCCCNC(=O)c1cccc(OCC(N=[N+]=[N-])OCC(=O)NCC#Cc3cn([C@H]4CC(OCN=[N+]=[N-])[C@@H](COP(=O)(O)OP(=O)(O)OP(=O)(O)O)O4)c4ncnc(N)c34)c1)CCC2` (stereo partly shown) [ffA-sPA-LN3-I-3], the “UV-VIS λmax” value in data set [1] amounted to 500 nm. Besides, the “fluorescence emission over time” value in data set [3] (setting [4]) and in data set [3] (setting [5]) was “decreased very slowly over time” throughout. Further, the “Fluorescence em. λmax” value in data set [2] came to 578 nm.

`C=CCOCOC1C[C@H](n2cc(/C=C/CNC(=O)COC(COc3cccc(C(=O)NCCCCCNC(=O)CCCN4CCCc5cc6c(cc54)OCc4cc5cc(OC)c(OC)cc5[n+](C)c4-6)c3)OCC=C)c3c(N)ncnc32)O[C@@H]1COP(=O)(O)OP(=O)(O)OP(=O)(O)O` (stereo partly shown) [ffA-(DB)-AOM-AOL-I-4]: in data set [1], the “UV-VIS λmax” value is on record as 500 nm. The “Fluorescence em. λmax” value in data set [2] is on record as 578 nm.

As for `COc1cc2cc3c([n+](C)c2cc1OC)-c1cc2c(cc1OC3)N(CCCC(=O)NCCCCCNC(=O)c1cccc(OCC(N=[N+]=[N-])OCC(=O)NCC#Cc3cn([C@H]4CC(OCN=[N+]=[N-])[C@@H](COP(=O)(O)OP(=O)(O)OP(=O)(O)O)O4)c4ncnc(N)c34)c1)CCC2` (stereo partly shown) [ffA-sPA-LN3-I-4], the “UV-VIS λmax” value in data set [1] worked out at 500 nm. In addition, the “fluorescence emission over time” value in data set [3] (setting [4]) and in data set [3] (setting [5]) was “decreased very slowly over time” each time. Besides, the “Fluorescence em. λmax” value in data set [2] is given as 578 nm.

For `COc1cc2c(cc3c([n+]2C)-c2cc4c(cc2OC3)N(CCCC(=O)NCCCCCNC(=O)c2cccc(OCC(N=[N+]=[N-])OCC(=O)NCC#Cc3cn([C@H]5CC(OCN=[N+]=[N-])[C@@H](COP(=O)(O)OP(=O)(O)OP(=O)(O)O)O5)c5ncnc(N)c35)c2)CCC4)c(OC)c1OC` (stereo partly shown) [ffA-sPA-LN3-I-8], in data set [1], the “UV-VIS λmax” value is 500 nm. In data set [2], the “Fluorescence em. λmax” value is 583 nm.

With `Cc1ccc2c(c1)cc1c([n+]2C)-c2cc3c(cc2OC1)N(CCCC(=O)NCCNC(=O)c1cccc(OCC(N=[N+]=[N-])OCCOCC(=O)NCC#Cc2cn([C@H]4CC(OCN=[N+]=[N-])[C@@H](COP(=O)(O)OP(=O)(O)OP(=O)(O)O)O4)c4ncnc(N)c24)c1)CCC3` (stereo partly shown) [ffA-LN3-I-2], in data set [1], the “UV-VIS λmax” value is recorded as 500 nm. Also, in data set [2], the “Fluorescence em. λmax” value stood at 582 nm.

With `CCN(CC)c1ccc2c(c1)OCc1cc3cc(CC(=O)NCCNC(=O)c4cccc(OCC(N=[N+]=[N-])OCCOCC(=O)NCC#Cc5cn([C@H]6CC(OCN=[N+]=[N-])[C@@H](COP(=O)(O)OP(=O)(O)OP(=O)(O)O)O6)c6ncnc(N)c56)c4)ccc3[n+](C)c1-2` (stereo partly shown) [ffA-LN3-I-6], the “UV-VIS λmax” value in data set [1] turned out to be 495 nm. Moreover, the “Fluorescence em. λmax” value in data set [2] is 574 nm.

Regarding `COc1ccc2c(c1)cc1c([n+]2C)-c2cc3c(cc2OC1)N(CCCC(=O)NCCNC(=O)c1cccc(OCC(N=[N+]=[N-])OCCOCC(=O)NCC#Cc2cn([C@H]4CC(OCN=[N+]=[N-])[C@@H](COP(=O)(O)OP(=O)(O)OP(=O)(O)O)O4)c4ncnc(N)c24)c1)C(C)(C)CC3C` (stereo partly shown) [ffA-LN3-I-5], in data set [1], the “UV-VIS λmax” value came out at 501 nm. The “Fluorescence em. λmax” value in data set [2] is on record as 585 nm.

As for `C=CCOCOC1C[C@H](n2cc(C#CCNC(=O)COC(COc3cccc(C(=O)NCCCCCNC(=O)CCCN4CCCc5cc6c(cc54)OCc4cc5cc(OC)c(OC)cc5[n+](C)c4-6)c3)OCC=C)c3c(N)ncnc32)O[C@@H]1COP(=O)(O)OP(=O)(O)OP(=O)(O)O` (stereo partly shown) [ffA-AOM-AOL-I-4], the “UV-VIS λmax” value in data set [1] is given as 500 nm. Moreover, the “Fluorescence em. λmax” value in data set [2] is listed as 578 nm.
